B1: Sir2-myc [Drosophila] / GST-Atg8a-WT [Drosophila] (parent complex)
chain 1: MMENYEEIRLGHIRSKDLGNQVPDTTQFYPPTKFDFGAEILASTSTEAEAEAEATATTTEPATSELAGKANGEIKTKTLAAREEQEIGANLEHKTKNPTKSMGEDEDDEEEEEEDDEEEEEDDEEGITGTSNEDEDSSSNCSSSVEPDWKLRWLQREFYTGRVPRQVIASIMPHFATGLAGDTDDSVLWDYLAHLLNEPKRRNKLASVNTFDDVISLVKKSQKIIVLTGAGVSVSCGIPDFRSTNGIYARLAHDFPDLPDPQAMFDINYFKRDPRPFYKFAREIYPGEFQPSPCHRFIKMLETKGKLLRNYTQNIDTLERVAGIQRVIECHGSFSTASCTKCRFKCNADALRADIFAQRIPVCPQCQPNKEQSVDASVAVTEEELRQLVENGIMKPDIVFFGEGLPDEYHTVMATDKDVCDLLIVIGSSLKVRPVAHIPSSIPATVPQILINREQLHHLKFDVELLGDSDVIINQICHRLSDNDDCWRQLCCDESVLTESKELMPPEHSNHHLHHHLLHHRHCSSESERQSQLDTDTQSIKSNSSADYILGSAGTCSDSGFESSTFSCGKRSTAAEAAAIERIKTDILVELNETTALSCDRLGLEGPQTTVESYRHLSIDSSKDSGIEQCDNEATPSYVRPSNLVQETKTVAPSLTPIPQQRGKRQTAAERLQPGTFYSHTNNYSYVFPGAQVFWDNDYSDDDDEEEERSHNRHSDLFGNVGHNYKDDDEDACDLNAVPLSPLLPPSLEAHIVTDIVNGSNEPLPNSSPGQKRTACIIEQQPTPAIETEIPPLKKRRPSEENKQQTQIERSEESPPPGQLAAV
chain 2: MKFQYKEEHAFEKRRAEGDKIRRKYPDRVPVIVEKAPKARIGDLDKKKYLVPSDLTVGQFYFLIRKRIHLRPEDALFFFVNNVIPPTSATMGSLYQEHHEEDYFLYIAYSDENVYGMAKIN

Variants of: B1
Assay: GST pull-down from larval lysate, anti-myc immunoblot, quantified; parent: 1; read off a plot

Variant	ratio to parent
chain 2 Y49A	~0.21
